Target: human beta-Klotho (human, UniProt Q86Z14 1-1044)
Test: cell-based or functional assay

| pERK-HEK293-Beta-klotho without HSA [EC50 (nM)] Median Value [nM] | Binder |
| --- | --- |
| 12.5 | [-1A, 71C, 121Q, 166F, 167G, 168L, 171L, 172E, 173A, 174V, des179-181] FGF-21 (ligand) AHPIPDSSPLLQFGGQVRQRYLYTDDAQQTEAHLEIREDGTVGGAADQSPESLLQLKALKPGVIQILGVKTCRFLCQRPDGALYGSLHFDPEACSFRELLLEDGYNVYQSEAHGLPLHLPGQKSPHRDPAPRGPARFLPLPGLPPALPEPPGILAPQPPDVGSSDPFGLVGLEAVRSPS |
| 23.8 | Derivative 101: Analog 10 with modifying moiety III on the sulphur of Cys 71 (ligand, Cys 71: {2-[2-(2-{2-[2-(2-{2-[(S)-4-Carboxy-4-(17-carboxyheptadecanoylamino)butyrylamino]ethoxy}ethoxy)acetylamino]ethoxy}ethoxy)acetylamino]ethylcarbamoyl}methyl (modifying moiety III) on the sulphur atom) AHPIPDSSPLLQFGGQVRQRYLYTDDAQQTEAHLEIREDGTVGGAADQSPESLLQLKALKPGVIQILGVKTCRFLCQRPDGALYGSLHFDPEACSFRELLLEDGYNVYQSEAHGLPLHLPGQKSPHRDPAPRGPARFLPLPGLPPALPEPPGILAPQPPDVGSSDPFGLVGLEAVRSPS |
| 1.6 | Met-FGF21 (mature human FGF21 with an added N-terminal methionine) (ligand) MHPIPDSSPLLQFGGQVRQRYLYTDDAQQTEAHLEIREDGTVGGAADQSPESLLQLKALKPGVIQILGVKTSRFLCQRPDGALYGSLHFDPEACSFRELLLEDGYNVYQSEAHGLPLHLPGNKSPHRDPAPRGPARFLPLPGLPPALPEPPGILAPQPPDVGSSDPLSMVGPSQGRSPSYAS |
| 1.4 | Derivative 102: Analog 11 with modifying moiety III on the sulphur of Cys 71 (ligand, Cys 71: {2-[2-(2-{2-[2-(2-{2-[(S)-4-Carboxy-4-(17-carboxyheptadecanoylamino)butyrylamino]ethoxy}ethoxy)acetylamino]ethoxy}ethoxy)acetylamino]ethylcarbamoyl}methyl (modifying moiety III) on the sulphur atom) AHPIPDSSPLLQFGGQVRQRYLYTDDAQQTEAHLEIREDGTVGGAADQSPESLLQLKALKPGVIQILGVKTCRFLCQRPDGALYGSLHFDPEACSFRELLLEDGYNVYQSEAHGLPLHLPGQKSPHRDPAPRGPARFLPLPGLPPALPEPPGILAPQPPDVGSSDPFSLVGPSAVRSPSFAS |
| 0.98 | [-1A, S71C, N121Q, L166F, M168L, Q173A, G174V, Y179F] FGF21 (ligand) AHPIPDSSPLLQFGGQVRQRYLYTDDAQQTEAHLEIREDGTVGGAADQSPESLLQLKALKPGVIQILGVKTCRFLCQRPDGALYGSLHFDPEACSFRELLLEDGYNVYQSEAHGLPLHLPGQKSPHRDPAPRGPARFLPLPGLPPALPEPPGILAPQPPDVGSSDPFSLVGPSAVRSPSFAS |
| 0.64 | [-1A, S71C, L166F, S167G, M168L, G174V, Y179F, A180E] FGF-21 (ligand) AHPIPDSSPLLQFGGQVRQRYLYTDDAQQTEAHLEIREDGTVGGAADQSPESLLQLKALKPGVIQILGVKTCRFLCQRPDGALYGSLHFDPEACSFRELLLEDGYNVYQSEAHGLPLHLPGNKSPHRDPAPRGPARFLPLPGLPPALPEPPGILAPQPPDVGSSDPFGLVGPSQVRSPSFES |
| 0.71 | [-1A, S71C, N121Q, L166F, S167G, M168L, G174V, Y179F, A180E] FGF-21 (ligand) AHPIPDSSPLLQFGGQVRQRYLYTDDAQQTEAHLEIREDGTVGGAADQSPESLLQLKALKPGVIQILGVKTCRFLCQRPDGALYGSLHFDPEACSFRELLLEDGYNVYQSEAHGLPLHLPGQKSPHRDPAPRGPARFLPLPGLPPALPEPPGILAPQPPDVGSSDPFGLVGPSQVRSPSFES |
| 0.47 | Derivative 18: Analog 2 with modifying moiety III on the sulphur of Cys 71 (ligand, Cys 71: {2-[2-(2-{2-[2-(2-{2-[(S)-4-Carboxy-4-(17-carboxyheptadecanoylamino)butyrylamino]ethoxy}ethoxy)acetylamino]ethoxy}ethoxy)acetylamino]ethylcarbamoyl}methyl (modifying moiety III) on the sulphur atom) AHPIPDSSPLLQFGGQVRQRYLYTDDAQQTEAHLEIREDGTVGGAADQSPESLLQLKALKPGVIQILGVKTCRFLCQRPDGALYGSLHFDPEACSFRELLLEDGYNVYQSEAHGLPLHLPGNKSPHRDPAPRGPARFLPLPGLPPALPEPPGILAPQPPDVGSSDPFGLVGPSQVRSPSFES |
| 0.47 | [-1A, S71C, L166F, S167G, M168L, P171L, S172E, Q173A, G174V, Y179F, A180E] FGF-21 (ligand) AHPIPDSSPLLQFGGQVRQRYLYTDDAQQTEAHLEIREDGTVGGAADQSPESLLQLKALKPGVIQILGVKTCRFLCQRPDGALYGSLHFDPEACSFRELLLEDGYNVYQSEAHGLPLHLPGNKSPHRDPAPRGPARFLPLPGLPPALPEPPGILAPQPPDVGSSDPFGLVGLEAVRSPSFES |
| 0.76 | [-1A, S71C, N121Q, L166F, S167G, M168L, P171L, S172E, Q173A, G174V, Y179F, A180E] FGF-21 (ligand) AHPIPDSSPLLQFGGQVRQRYLYTDDAQQTEAHLEIREDGTVGGAADQSPESLLQLKALKPGVIQILGVKTCRFLCQRPDGALYGSLHFDPEACSFRELLLEDGYNVYQSEAHGLPLHLPGQKSPHRDPAPRGPARFLPLPGLPPALPEPPGILAPQPPDVGSSDPFGLVGLEAVRSPSFES |
| 1.01 | Derivative 24: Analog 8 with modifying moiety III on the sulphur of Cys 71 (ligand, Cys 71: {2-[2-(2-{2-[2-(2-{2-[(S)-4-Carboxy-4-(17-carboxyheptadecanoylamino)butyrylamino]ethoxy}ethoxy)acetylamino]ethoxy}ethoxy)acetylamino]ethylcarbamoyl}methyl (modifying moiety III) on the sulphur atom) AHPIPDSSPLLQFGGQVRQRYLYTDDAQQTEAHLEIREDGTVGGAADQSPESLLQLKALKPGVIQILGVKTCRFLCQRPDGALYGSLHFDPEACSFRELLLEDGYNVYQSEAHGLPLHLPGQKSPHRDPAPRGPARFLPLPGLPPALPEPPGILAPQPPDVGSSDPFGLVGLEAVRSPSFES |
| 0.78 | [-1A, S71C, N121Q, L166F, S167G, M168L, G174V, Y179F, A180E, des181] FGF-21 (ligand) AHPIPDSSPLLQFGGQVRQRYLYTDDAQQTEAHLEIREDGTVGGAADQSPESLLQLKALKPGVIQILGVKTCRFLCQRPDGALYGSLHFDPEACSFRELLLEDGYNVYQSEAHGLPLHLPGQKSPHRDPAPRGPARFLPLPGLPPALPEPPGILAPQPPDVGSSDPFGLVGPSQVRSPSFE |
| 0.77 | [-1A, S71C, L166F, S167G, M168L, P171L, S172E, Q173A, G174V, Y179F, A180E, des181] FGF-21 (ligand) AHPIPDSSPLLQFGGQVRQRYLYTDDAQQTEAHLEIREDGTVGGAADQSPESLLQLKALKPGVIQILGVKTCRFLCQRPDGALYGSLHFDPEACSFRELLLEDGYNVYQSEAHGLPLHLPGNKSPHRDPAPRGPARFLPLPGLPPALPEPPGILAPQPPDVGSSDPFGLVGLEAVRSPSFE |
| 1.46 | Derivative 31: Analog 7 with modifying moiety IV on the sulphur of Cys 71 (ligand, Cys 71: {2-[2-(2-{2-[2-(2-{2-[(S)-4-Carboxy-4-(19-carboxynonadecanoylamino)butyrylamino]ethoxy}ethoxy)acetylamino]ethoxy}ethoxy)acetylamino]ethylcarbamoyl}methyl (modifying moiety IV) on the sulphur atom) AHPIPDSSPLLQFGGQVRQRYLYTDDAQQTEAHLEIREDGTVGGAADQSPESLLQLKALKPGVIQILGVKTCRFLCQRPDGALYGSLHFDPEACSFRELLLEDGYNVYQSEAHGLPLHLPGQKSPHRDPAPRGPARFLPLPGLPPALPEPPGILAPQPPDVGSSDPFGLVGLEAVRSPSFE |
| 0.71 | [-1A, S71C, L166F, S167G, M168L, G174V, Y179F, A180E, des181] FGF-21 (ligand) AHPIPDSSPLLQFGGQVRQRYLYTDDAQQTEAHLEIREDGTVGGAADQSPESLLQLKALKPGVIQILGVKTCRFLCQRPDGALYGSLHFDPEACSFRELLLEDGYNVYQSEAHGLPLHLPGNKSPHRDPAPRGPARFLPLPGLPPALPEPPGILAPQPPDVGSSDPFGLVGPSQVRSPSFE |
| 0.7 | [-1A, 121Q, 166F, 167G, 168L, 171L, 172E, 173A, 174V, 179F, 180E, des181] FGF-21 (ligand) AHPIPDSSPLLQFGGQVRQRYLYTDDAQQTEAHLEIREDGTVGGAADQSPESLLQLKALKPGVIQILGVKTSRFLCQRPDGALYGSLHFDPEACSFRELLLEDGYNVYQSEAHGLPLHLPGQKSPHRDPAPRGPARFLPLPGLPPALPEPPGILAPQPPDVGSSDPFGLVGLEAVRSPSFE |
| 0.64 | Derivative 23: Analog 7 with modifying moiety III on the sulphur of Cys 71 (ligand, Cys 71: {2-[2-(2-{2-[2-(2-{2-[(S)-4-Carboxy-4-(17-carboxyheptadecanoylamino)butyrylamino]ethoxy}ethoxy)acetylamino]ethoxy}ethoxy)acetylamino]ethylcarbamoyl}methyl (modifying moiety III) on the sulphur atom) AHPIPDSSPLLQFGGQVRQRYLYTDDAQQTEAHLEIREDGTVGGAADQSPESLLQLKALKPGVIQILGVKTCRFLCQRPDGALYGSLHFDPEACSFRELLLEDGYNVYQSEAHGLPLHLPGQKSPHRDPAPRGPARFLPLPGLPPALPEPPGILAPQPPDVGSSDPFGLVGLEAVRSPSFE |
| 0.98 | Derivative 17: Analog 1 with modifying moiety III on the sulphur of Cys 71 (ligand, Cys 71: {2-[2-(2-{2-[2-(2-{2-[(S)-4-Carboxy-4-(17-carboxyheptadecanoylamino)butyrylamino]ethoxy}ethoxy)acetylamino]ethoxy}ethoxy)acetylamino]ethylcarbamoyl}methyl (modifying moiety III) on the sulphur atom) AHPIPDSSPLLQFGGQVRQRYLYTDDAQQTEAHLEIREDGTVGGAADQSPESLLQLKALKPGVIQILGVKTCRFLCQRPDGALYGSLHFDPEACSFRELLLEDGYNVYQSEAHGLPLHLPGNKSPHRDPAPRGPARFLPLPGLPPALPEPPGILAPQPPDVGSSDPFGLVGPSQVRSPSFE |
| 0.48 | Derivative 19: Analog 3 with modifying moiety III on the sulphur of Cys 71 (ligand, Cys 71: {2-[2-(2-{2-[2-(2-{2-[(S)-4-Carboxy-4-(17-carboxyheptadecanoylamino)butyrylamino]ethoxy}ethoxy)acetylamino]ethoxy}ethoxy)acetylamino]ethylcarbamoyl}methyl (modifying moiety III) on the sulphur atom) AHPIPDSSPLLQFGGQVRQRYLYTDDAQQTEAHLEIREDGTVGGAADQSPESLLQLKALKPGVIQILGVKTCRFLCQRPDGALYGSLHFDPEACSFRELLLEDGYNVYQSEAHGLPLHLPGNKSPHRDPAPRGPARFLPLPGLPPALPEPPGILAPQPPDVGSSDPFGLVGLEAVRSPSFE |
| 0.63 | [-1A, S71C, N121Q, L166F, S167G, M168L, P171L, S172E, Q173A, G174V, Y179F, A180E, des181] FGF-21 (ligand) AHPIPDSSPLLQFGGQVRQRYLYTDDAQQTEAHLEIREDGTVGGAADQSPESLLQLKALKPGVIQILGVKTCRFLCQRPDGALYGSLHFDPEACSFRELLLEDGYNVYQSEAHGLPLHLPGQKSPHRDPAPRGPARFLPLPGLPPALPEPPGILAPQPPDVGSSDPFGLVGLEAVRSPSFE |
| 1.07 | Derivative 21: Analog 5 with modifying moiety III on the sulphur of Cys 71 (ligand, Cys 71: {2-[2-(2-{2-[2-(2-{2-[(S)-4-Carboxy-4-(17-carboxyheptadecanoylamino)butyrylamino]ethoxy}ethoxy)acetylamino]ethoxy}ethoxy)acetylamino]ethylcarbamoyl}methyl (modifying moiety III) on the sulphur atom) AHPIPDSSPLLQFGGQVRQRYLYTDDAQQTEAHLEIREDGTVGGAADQSPESLLQLKALKPGVIQILGVKTCRFLCQRPDGALYGSLHFDPEACSFRELLLEDGYNVYQSEAHGLPLHLPGQKSPHRDPAPRGPARFLPLPGLPPALPEPPGILAPQPPDVGSSDPFGLVGPSQVRSPSFE |

From patent US20130252884A1 (Novo Nordisk, published 2013)
